The DeepSol protein solubility set

Assay: soluble on expression in E. coli; label from the status in PepcDB or PDB records

Row | Sequence | soluble on expression in E. coli
1 | GSHMSQLYASLFYQRDVTEIFSDRALVSYMVEAEVALAQAQAQVGVIPQSAATVIQRAAKTAIDKIDFDALATATGLAGNIAIPFVKQLTAIVKDADEDAARYVHWGATSQDILDTACILQCRDALAIVQNQVQQCYETALSQAQTYRHQVMMGRTWLQQALPITLGHKLARWASAFKRDLDRINAIKARVLVAQLGGAVGSLASLQDQGSIVVEAYAKQLKLGQTACTWHGERDRIVEIASVLGIITGNVGKMARDWSLMMQTEIAEVFEPTAKGRGGSSTMPHKRNPVAAASVLAAANRVPALMSSIYQSMVQEHERSLGAWHAEWLSLPEIFQLTAGALERTLDVLKGMEVNAENMHQNIECTHGLIMAEAVMMALAPHMGRLNAHHVVEAACKTAVAEQKHLKDIISQVDEVKQYFNPSQLDEIFKPESYLGNIQDQIDAVLQEAKGEAK | soluble
2 | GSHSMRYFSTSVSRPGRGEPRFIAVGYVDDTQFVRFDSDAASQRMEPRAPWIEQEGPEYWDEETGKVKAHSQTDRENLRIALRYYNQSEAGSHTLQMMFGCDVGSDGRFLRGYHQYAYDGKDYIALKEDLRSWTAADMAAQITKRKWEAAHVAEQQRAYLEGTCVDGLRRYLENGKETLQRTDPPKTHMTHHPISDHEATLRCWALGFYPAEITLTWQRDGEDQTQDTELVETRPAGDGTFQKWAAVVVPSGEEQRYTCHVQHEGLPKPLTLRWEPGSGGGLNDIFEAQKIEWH | soluble
3 | GSKFLNKRLSEREFDPDIHCGVIDLDTKKPCTRSLTCKTHSLTQRRAVQGRRKRFDVLLAEHKNKTREKELIRH | soluble
4 | GSKVVKFSYMWTINNFSFCREEMGEVIKSSTFSSGANDKLKWCLRVNPKGLDEESKDYLSLYLLLVSCPKSEVRAKFKFSILNAKGEETKAMESQRAYRFVQGKDWGFKKFIRRGFLLDEANGLLPDDKLTLFCEVSVVQDSVNISGQNTMNMVKVPECRLADELGGLWENSRFTDCCLCVAGQEFQAHKAILAARSPVFSAMFEHEMEESKKNRVEINDVEPEVFKEMMCFIYTGKAPNLDKMADDLLAAADKYALERLKVMCEDALCSNLSVENAAEILILADLHSADQLKTQAVDFINYHATDVLETSG | soluble
5 | GSLHRVPLRRHPSLKKKLRARSQLSEFWKSHNLDM | soluble
6 | GSLLKPARFMCLPCGIAFSSPSTLEAHQAYYCSHRI | soluble
7 | GSLSRLSYKSNNNSFVLGIGISVPGEPISQQSLKDSISNDFSDKAETNEKVKRIFEQSQIKTRHLVRDYTKPENSIKFRHLETITDVNNQFKKVVPDLAQQACLRALKDWGGDKGDITHIVSVTSTGIIIPDVNFKLIDLLGLNKDVERVSLNLMGCLAGLSSLRTAASLAKASPRNRILVVCTEVCSLHFSNTDGGDQMVASSIFADGSAAYIIGCNPRIEETPLYEVMCSINRSFPNTENAMVWDLEKEGWNLGLDASIPIVIGSGIEAFVDTLLDKAKLQTSTAISAKDCEFLIHTGGKSILMNIENSLGIDPKQTKNTWDVYHAYGNMSSASVIFVMDHARKSKSLPTYSISLAFGPGLAFEGCFLKNVV | soluble
8 | GSMFPHHSITESVNYDVKTFGSSLPVKVMEALTLAEVDDQLTINIDEGGWACLVCKEKLIIWKIALSPITKLSVCKELQLPPSDFHWSADLVALSYSSPSGEAHSTQAVAVMVATREGSIRYWPSLAGEDTYTEAFVDSGGDKTYSFLTAVQGGSFILSSSGSQLIRLIPESSGKIHQHILPQGQGMLSGIGRKVSSLFGILSPSSDLTLSSVLWDRERSSFYSLTSSNISKWELDDSSEKHAYSWDINRALKENITDAIWGSESNYEAIKEGVNIRYLDLKQNCDGLVILAAAWHSADNPCLIYYSLITIEDNGCQMSDAVTVEVTQYNPPFQSEDLILCQLTVPNFSNQTAYLYNESAVYVCSTGTGKFSLPQEKIVFNAQGDSVLGAGACGGVPIIFSRNSGLVSITSRENVSILAEDLEGSLASSVAGPNSESMIFETTTKNETIA | soluble
9 | GSPEKILAQIIQEHREGLDWQEAATRASLSLEETRKLLQSMAAAGQVTLLRVENDLYAISTERYQAWWQAVTRALEEFHSRYPLRPGLAREELRSRYFSRLPARVYQALLEEWSREGRLQLAANTVALAGFTPSFSETQKKLLKDLEDKYRVSRWQPPWVKEVAGSFNLDPSELEELLHYLVREGVLVKINDEFYWHRQALGEAREVIKNLASTGPFGLAEARDALGSSRKYVLPLLEYLDQVKFTRRVGDKRVVVGN | soluble
10 | GSPPAQLSVHTVSWNSGHERAPTNLEELLGLNSGETPDVIAVAVQGFGFQTDKPQQGPACVKNFQSLLTSKGYTKLKNTITETMGLTVYCLEKHLDQNTLKNETIIVTVDDQKKSGGIVTSFTIYNKRFSFTTSRMSDEDVTSTNTKYAYDTRLDYSKKDDPSDFLFWIGDLNVRVETNATHAKSLVDQNNIDGLMAFDQLKKAKEQKLFDGWTEPQVTFKPTYKFKPNTDEYDLSATPSWTDRALYKSGTGKTIQPLSYNSLTNYKQTEHRPVLAKFRVTL | soluble
11 | GSPREKVAMEYLQSASRVLTRSQLRDVVASSHLLQSEFMEIPMNFVDPKEIDIPRHGTKNRYKTILPNPLSRVCLRPKNITDSLSTYINANYIRGYSGKEKAFIATQGPMINTVNDFWQMVWQEDSPVIVMITKLKEKNEKCVLYWPEKRGIYGKVEVLVTGVTECDNYTIRNLVLKQGSHTQHVKHYWYTSWPDHKTPDSAQPLLQLMLDVEEDRLASEGRGPVVVHCSAGIGRTGCFIATSIGCQQLKEEGVVDALSIVCQLRVDRGGMVQTSEQYEFVHHALCLFESRLSPETV | soluble
12 | GSRNPNKLDINTLTGEERVPVVNKRNGKKMGGAMAPPMKDLPRWLEENPEFAVAPDWTDIVKQSGFVPESMFDRLLTGPVVRGEGAS | soluble
13 | GSSGGPNVPELILQLLQLEPEEDQVRARIVGCLQEPAKSRSDQPAPFSLLCRMADQTFISIVDWARRCMVFKELEVADQMTLLQNSWSELLVLDHIYRQVQYGKEDSILLVTGQEVELSTVAVQAGSLLHSLVLRAQELVLQLHALQLDRQEFVCLKFLILFSLDVKFLNNHSLVKDAQEKANAALLDYTLSHYPHSGDKFQQLLLSLVEVRALSMQAKEYLYHKHLGNEMPRNNLLIEMLQAKQT | soluble
14 | GSSHHHHHHSFFFLSFHISNLQFNSSLEDPSTDYYQELQRDISEMFLQIYKQGGFLGLSNIKFRPG | soluble
15 | GSSHHHHHHSSGLVPRGSHMRGQRGEVEQMKSCLRVLSQPMPPTAGEAEQAADQQEREGALELLADLCENMDNAADFCQLSGMHLLVGRYLEAGAAGLRWRAAQLIGTCSQNVAAIQEQVLGLGALRKLLRLLDRDACDTVRVKALFAISCLVREQEAGLLQFLRLDGFSVLMRAMQQQVQKLKVKSAFLLQNLLVGHPEHKGTLCSMGMVQQLVALVRTEHSPFHEHVLGALCSLVTDFPQGVRECREPELGLEELLRHRCQLLQQHEEYQEELEFCEKLLQTCFSSPADDSMDR | soluble
16 | GSTSAKRIQKELAEITLDPPPNCSAGPKGDNIYEWRSTILGPPGSVYEGGVFFLDITFSPDYPFKPPKVTFRTRIYHCNINSQGVICLDILKDNWSPALTISKVLLSICSLLTDCNPADPLVGSIATQYMTNRAEHDRMARQWTKRYAT | soluble
17 | GTEDLYFQSHMTIAVTGSIATDHLMRFPGRFSEQLLPEHLHKVSLSFLVDDLVMHRGGVAGNMAFAIGVLGGEVALVGAAGADFADYRDWLKARGVNCDHVLISETAHTARFTCTTDVDMAQIASFYPGAMSEARNIKLADVVSAIGKPELVIIGANDPEAMFLHTEECRKLGLAFAADPSQQLARLSGEEIRRLVNGAAYLFTNDYEWDLLLSKTGWSEADVMAQIDLRVTTLGPKGVDLVEPDGTTIHVGVVPETSQTDPTGVGDAFRAGFLTGRSAGLGLERSAQLGSLVAVLVLESTGTQEWQWDYEAAASRLAGAYGEHAAAEIVAVLA | soluble
18 | GTERPYGQREVDHYAEKQAIAERAAQEVREGQVVCFDAGSTTMEVARAIPDTDYVAATNMPDLATELAEGDVDTKLTGGSLRPRTRALVGPTAERAVERMNFDLLFLGTNALDSAAGLSTPNEDEAAIKELMVERARRVVLVADASKFGDR | not soluble
19 | GTIVITGTITDQTCTIEDPSPGYIKVVHLPTISKSALKNAGDVAGRTRFDIKLKDCPTTVNTLKLYFEPGPTTDYGTKDLKAYKQAWYVDAATLLKSPPSVTEAKGVQIRLMNLNGKQIPMGETEPNQHAAAFSGTMQAGQAKKSFTLHYLAGYVKKASGEVEATMLTTYVGFSVVYP | not soluble
20 | GTTDAQGFATVEIKQSQGVGLSTPLNIVPVNSYIPNTVNYNVIFTTLTSPDAVGAQMWGHMDETITVDALTFARPRLAAEVFSPDGTLTENNEVWSRVSQANASSTSKGGCGANMLPRRSQLSALYDANNGNGVQTVHGWPTQRQPYWSSSPADQVPHYYTIALNDGARTVGGSTAVYVSCLTTANNP | not soluble
21 | GVKYAYHGGAMANGIASVELVVALGKAGFLCSFGAAGLVPDAVEDAIKRIQAELPNGPYAVNLIHAPAEEALERGAVERFLKLGVKTVEASAYLGLTEHIVWYRLAGLSKNSDGSVKIGNKVIAKVSRTEVGRRFMEPAPQKLIDKLLAQGKVTQEQAELSKLVPMADDITAEADSGGHTDNRPFLTLLPTIIALRDEVQAQYNFSPALRVGAGGGIGTPEAALAAFNMGSAYIVLGSVNQACVEAGASEYTRKLLAQVEMAD | not soluble
22 | GWLDLAPSTQVDTETSINVLSDIEFTLNGIYSTMQSSDAYSGRLVYYGDVTGDDMQAVSSTKRTGNYYRFNFTKDNGPSSHWSYLYSIIQNCNLILMNVDKLSIDEDETEYKNDLKGQALAIRGMALFDLTRIFGYPYLKDNGASLGVPIVKELSTIDSKPARNTVAECYTEIISDLKNSTELLSGDFNKGKVNRWAAMTLLSRVYLYKGEYNEALTMAENAIKGAEKEGYALWTNEEYPTAWGNDASASNPGEILFEIVNLTTDSPGKESMGYLNSYNGYDDMCITCSFYQLLKKDPKDVRLKILSFDKKYYAYVNKYQPQQGENITDANIPLIRLSEAYLNAAEAAVQTGDNAKAVKYLNSIVQRANPENSVEGKTLTLENVLDERRKELVAEGHRMYDVIRNGMTVKRIDVKDSDINKTKHNTAYMEYDWNFHKILLPIPKKEMDANPNMKQNPGYVD | soluble
23 | GYQPEKHAVVKSDRGDGRLLSTYAIVHEMLKDTHPQYAYRSGMSAQEFTQWQDGVRAAMVEIMKFPEIKRQPSPVCVKTEKKEGYILEKWEFYPFPKSVSTFLVLKPEHLKGAVPGVLCIPGSGRTKEGLVGEPGICDKLTEDYNNPKVSMALNMVKEGYVAVAVDNAAAGEASDLECYDKGWNYDYDVVSRFLLELGWSWLGYTSYLDMQVLNWMKAQSYIRKDRIVISGFSLGTEPMMVLGVLDKDIYAFVYNDFLCQTQERAVVMTKPDKENRRPFPNSIRHLIPGYWRYFNFPDVVASLAPRPIIFTEGGLDRDFRLVQSAYAASGKPENAEFHHYPKFADKAVRKDVEHLDEGLDSKTYFEAVNVDPPSHYFKNELVIPWLRKVLK | soluble
24 | HAAGFRRGDLVHNTLSYHFSPGGFIMDGGARACGCAVFPAGVGNTEAQIEAIKQLQPTGYTGTPSYLLTLLQKYQEQYGELPSFTKALVSGEAVTADMQQAFTDKGIAVFQAYASAELGLIAYQVAGEQGLVIGED | not soluble
